# Data taken from paper PMC9712074.
# Target: SA58 (BD55-5840), human IgG1 (human)
# Assay: SPR
substance,measurement,value
SARS-CoV-2 (BA.4/BA.5) Spike RBD Protein (His Tag) (from UniProt P0DTC2) (domain or fragment),Kd,0.96 nM
